# In patent US20250381223A1 (UTC THERAPEUTICS SHANGHAI, published 2025):
# Tests used:
# [1] = target: T1, BCMA-Fc recombinant protein (human, UniProt Q02223 1-54); experiment: flow cytometry; CAR-T cells stained with 5 µg/mL BCMA-Fc, anti-human IgG Fc
# T1 construct: construct not described; not shown: Fc part
# T1 sequence (looked up): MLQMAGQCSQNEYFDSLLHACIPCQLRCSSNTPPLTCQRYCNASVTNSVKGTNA
# Procedure: (5) Screening for functional anti-BCMA scFv in T cells: the anti-BCMA scFv was constructed into a bicistronic lentiviral CAR expression vector containing an IRES-truncated EGFR (tEGFR) expression cassette. The lentivirus was produced by transient transfection of 293T cells, followed by purification by ultracentrifugation and concentration. T cells were transduced with the CAR lentivirus to generate CAR-T cells, which were then cultured for 10 days. 10 days after lentivirus transduction, CAR-T cells were collected and stained with 5 μg/mL CD19-Fc protein (Ctrl Fc protein) or BCMA-Fc recombinant protein for 30 min at 4° C. After washing, the CAR-T cells were stained with the anti-human IgG Fc and anti-EGFR mAb. The samples were analyzed using a flow cytometer.
# CD40-Fc [2] = target: T2, CD40-Fc (human, UniProt P25942); experiment: flow cytometry of T cells co-electroporated with 15 µg diabody mRNA and 0.5 µg 4D5.BBZ mRNA; CD40-Fc + PE-anti-IgG-Fc; E1 without mRNA: 0.27
# T2 construct: part fused to Fc; staining reagent of the flow cytometry; also called recombinant human CD40-Fc antigen protein
# CD40-Fc [3] = target: T2, CD40-Fc; experiment: flow cytometry of T cells co-electroporated with 15 µg diabody mRNA and 2 µg M12 CAR mRNA; CD40-Fc + PE-anti-Fc; E1 without mRNA: 0.56
Binder,binding result [1],% of cells in the positive gate (CD40-Fc [2]),% of cells in the positive gate (CD40-Fc [3])
"BCMA34 (scFv, On lentivirus-transduced T cells as CAR; also called anti-BCMA scFv BCMA34) scFv: QPGLTQPPSVSKGLRQTATLTCTGNSNNVGNQGAAWLQQHQGHPPKLLSYRNNNRPSGISERFSASRSGNTASLTITGLQPEDEADYYCSAWDSSLSARVFGGGTKLTVLGGGGSGGGGSGGGGSQVQLVQSGAEVKKPGASVKVSCKTSGYTFSNPFVHWVRQAPGQGLEWVGIINLSGGDTLYAQKFQGGVTMTRDTSTNTAYMELTSLTFEDTAVYYCARDQAGFGDSAYWGQGTLVTVSS",binds,–,–
"4.4 (bispecific antibody, expressed from mRNA in T cells) scFv-G4S-scFv: QVKLQESGPGLVKPSETLSITCTVSGFSLSDYGVHWVRQSPGKGLEWLGVIWAGGGTNYNSALMSRKTISKDNSKSQVFLKMSSLTAADTAVYYCARDKGYSYYYSMDYWGQGTTVTVSSGGGGSGGGGSGGGGSDIQLTQSPSSLSVSVGDRVTISCRASESVEYYVTSLMQWYQQKPGQAPKLLIFAASNVESGVPSRFSGSGSGTNFTLTISSVQEEDFAMYFCQQSRKVPYTFGGGTKLEIKGGGGSQVQLVQSGAEVKKPGSSVKVSCKASGGTFSSYAISWVRQAPGQGLEWMGMINPSGGTTSYAQKFQGRVTMTRDTSTSTVYMELSSLRPEDTAVYYCARGFRMDQWGQGTLVTVSSGGGGSGGGGSGGGGSQSALTQPPSASGSPGQSVTISCTGTSSDVGAYNFVSWYQQHPGNAPKLIIYDVRKRPSGIPDRFSASKSGNTASLTVSGLQADDEADYYCSSYAGNNNLVFGGGTKLTVL",–,55.4,51
"BCMA33 (scFv, On lentivirus-transduced T cells as CAR; also called anti-BCMA scFv BCMA33) scFv: QSALTQPPSASGSPGQSVTISCTGTSSDVGGYNYVSWYQQHPGKAPKLMIYEVSKRPSGVPDRFSGSKSGNTASLTVSGLQAEDEADYFCSSYAGSNNFVVFGGGTKLTVLGGGGSGGGGSGGGGSEVQLVESGGGLVQPGRSLRLSCAASGFTFDDYAMHWVRQAPGKGLEWVSGISWNSGSIGYADSVKGRFTISRDNAKNSLYLQMNSLRAEDTALYYCAKVGASAALGAFDIWGQGTMVTVSS",binds,–,–
"BCMA27 (scFv, On lentivirus-transduced T cells as CAR; also called anti-BCMA scFv BCMA27) scFv: QSALTQPPSASGSPGQSVTISCTGSRSNVGSYNDVSWYQQHPGKAPKLIIYDVDKRPAGVPDRFSGSKSGNTASLTVSGLQAEDDADYYCSSYGGTYSLFVFGTGTELTVLGGGGSGGGGSGGGGSEVQLVESGGDLVQPGGSLRLSCAASGFTFSSYGMHWVRQAPGKGLEWVAVISYDGSNKYYADSVKGRFTISRDNSKNTLYLQMNSLRAEDTAVYYCAKEEFYGDSSYGMDVWGQGTTVTVSS",binds,–,–
"4.5 (bispecific antibody, expressed from mRNA in T cells) scFv-G4S-scFv: QVQLVQSGAEVKKPGSSVKVSCKASGGTFSSYAISWVRQAPGQGLEWMGMINPSGGTTSYAQKFQGRVTMTRDTSTSTVYMELSSLRPEDTAVYYCARGFRMDQWGQGTLVTVSSGGGGSGGGGSGGGGSQSALTQPPSASGSPGQSVTISCTGTSSDVGAYNFVSWYQQHPGNAPKLIIYDVRKRPSGIPDRFSASKSGNTASLTVSGLQADDEADYYCSSYAGNNNLVFGGGTKLTVLGGGGSDIQLTQSPSSLSVSVGDRVTISCRASESVEYYVTSLMQWYQQKPGQAPKLLIFAASNVESGVPSRFSGSGSGTNFTLTISSVQEEDFAMYFCQQSRKVPYTFGGGTKLEIKGGGGSGGGGSGGGGSQVKLQESGPGLVKPSETLSITCTVSGFSLSDYGVHWVRQSPGKGLEWLGVIWAGGGTNYNSALMSRKTISKDNSKSQVFLKMSSLTAADTAVYYCARDKGYSYYYSMDYWGQGTTVTVSS",–,72.2,65
"BCMA31 (scFv, On lentivirus-transduced T cells as CAR; also called anti-BCMA scFv BCMA31) scFv: QSALTQPPSASGSPGQSVTISCTGTSSDVGTYNYVSWYQQHPGKAPKLMIYDVNQRPSGVPDRFSGSKSGNTASLTVSGLQAEDEADYYCSSYGGSNNLVFGGGTKVTVLGGGGSGGGGSGGGGSEVQLVESGGGLIQPGGSLRLSCAASGFTFSSYWMSWVRQSPGKGLEWVANIKPDGSDKYYVDSVKGRFTISRDNAKNSLDLQMNSLRGEDTAIYYCARGATTYGSWGQGTLVTVSS",binds,–,–
"4.6 (bispecific antibody, expressed from mRNA in T cells) scFv-G4S-scFv: QVQLVQSGAEVKKPGSSVKVSCKASGGTFSSYAISWVRQAPGQGLEWMGMINPSGGTTSYAQKFQGRVTMTRDTSTSTVYMELSSLRPEDTAVYYCARGFRMDQWGQGTLVTVSSGGGGSGGGGSGGGGSQSALTQPPSASGSPGQSVTISCTGTSSDVGAYNFVSWYQQHPGNAPKLIIYDVRKRPSGIPDRFSASKSGNTASLTVSGLQADDEADYYCSSYAGNNNLVFGGGTKLTVLGGGGSQVKLQESGPGLVKPSETLSITCTVSGFSLSDYGVHWVRQSPGKGLEWLGVIWAGGGTNYNSALMSRKTISKDNSKSQVFLKMSSLTAADTAVYYCARDKGYSYYYSMDYWGQGTTVTVSSGGGGSGGGGSGGGGSDIQLTQSPSSLSVSVGDRVTISCRASESVEYYVTSLMQWYQQKPGQAPKLLIFAASNVESGVPSRFSGSGSGTNFTLTISSVQEEDFAMYFCQQSRKVPYTFGGGTKLEIK",–,98.5,97.9
"BCMA30 (scFv, On lentivirus-transduced T cells as CAR; also called anti-BCMA scFv BCMA30) scFv: DIQMTQSPSFLSASVGDRVTITCRASQGISSYLAWYQQKPGKAPKLLIYAASTLQSGVPSRFSGSGSGTEFTLTISSLQPEDFATYYCQQLNSYPPWTFGQGTKVEIKGGGGSGGGGSGGGGSQVQLVQSGAEVKKPGESLKISCKGSGYRFTSYWIGWVRQMPGKGLEWMGIIYPGDSDTRYSPPFQGQVTISADKSIDTAYLQWSSLKASDTAMYYCARLDASGSQRGGMDVWGQGTTVTVSS",binds,–,–
"BCMA28 (scFv, On lentivirus-transduced T cells as CAR; also called anti-BCMA scFv BCMA28) scFv: QSALTQPPSVSEAPRQRVTISCSGSSSNIGQNAVNWYQKLPGKAPKLLIYYNDLVSSGVSDRFSGSKSGTSASLAISGLQSEDEADYYCATWDDSLNGVVFGGGTKVTVLGGGGSGGGGSGGGGSQVQLVQSGPGLVKPSQTLSLTCAISGDSVSSNSAAWNWIRQSPSRGLEWLGRTYYRSKWYNDYAVSVKSRITINPDTSKNQFSLQLNSVTPEDTAVYYCARDYYYGMDVWGQGTTVTVSS",binds,–,–
"4.3 (bispecific antibody, expressed from mRNA in T cells) scFv-G4S-scFv: QVKLQESGPGLVKPSETLSITCTVSGFSLSDYGVHWVRQSPGKGLEWLGVIWAGGGTNYNSALMSRKTISKDNSKSQVFLKMSSLTAADTAVYYCARDKGYSYYYSMDYWGQGTTVTVSSGGGGSGGGGSGGGGSDIQLTQSPSSLSVSVGDRVTISCRASESVEYYVTSLMQWYQQKPGQAPKLLIFAASNVESGVPSRFSGSGSGTNFTLTISSVQEEDFAMYFCQQSRKVPYTFGGGTKLEIKGGGGSQSALTQPPSASGSPGQSVTISCTGTSSDVGAYNFVSWYQQHPGNAPKLIIYDVRKRPSGIPDRFSASKSGNTASLTVSGLQADDEADYYCSSYAGNNNLVFGGGTKLTVLGGGGSGGGGSGGGGSQVQLVQSGAEVKKPGSSVKVSCKASGGTFSSYAISWVRQAPGQGLEWMGMINPSGGTTSYAQKFQGRVTMTRDTSTSTVYMELSSLRPEDTAVYYCARGFRMDQWGQGTLVTVSS",–,43.5,36.3
"4.2 (bispecific antibody, expressed from mRNA in T cells) scFv-G4S-scFv: DIQLTQSPSSLSVSVGDRVTISCRASESVEYYVTSLMQWYQQKPGQAPKLLIFAASNVESGVPSRFSGSGSGTNFTLTISSVQEEDFAMYFCQQSRKVPYTFGGGTKLEIKGGGGSGGGGSGGGGSQVKLQESGPGLVKPSETLSITCTVSGFSLSDYGVHWVRQSPGKGLEWLGVIWAGGGTNYNSALMSRKTISKDNSKSQVFLKMSSLTAADTAVYYCARDKGYSYYYSMDYWGQGTTVTVSSGGGGSQVQLVQSGAEVKKPGSSVKVSCKASGGTFSSYAISWVRQAPGQGLEWMGMINPSGGTTSYAQKFQGRVTMTRDTSTSTVYMELSSLRPEDTAVYYCARGFRMDQWGQGTLVTVSSGGGGSGGGGSGGGGSQSALTQPPSASGSPGQSVTISCTGTSSDVGAYNFVSWYQQHPGNAPKLIIYDVRKRPSGIPDRFSASKSGNTASLTVSGLQADDEADYYCSSYAGNNNLVFGGGTKLTVL",–,98.2,97.7
"4.1 (bispecific antibody, expressed from mRNA in T cells) scFv-G4S-scFv: DIQLTQSPSSLSVSVGDRVTISCRASESVEYYVTSLMQWYQQKPGQAPKLLIFAASNVESGVPSRFSGSGSGTNFTLTISSVQEEDFAMYFCQQSRKVPYTFGGGTKLEIKGGGGSGGGGSGGGGSQVKLQESGPGLVKPSETLSITCTVSGFSLSDYGVHWVRQSPGKGLEWLGVIWAGGGTNYNSALMSRKTISKDNSKSQVFLKMSSLTAADTAVYYCARDKGYSYYYSMDYWGQGTTVTVSSGGGGSQSALTQPPSASGSPGQSVTISCTGTSSDVGAYNFVSWYQQHPGNAPKLIIYDVRKRPSGIPDRFSASKSGNTASLTVSGLQADDEADYYCSSYAGNNNLVFGGGTKLTVLGGGGSGGGGSGGGGSQVQLVQSGAEVKKPGSSVKVSCKASGGTFSSYAISWVRQAPGQGLEWMGMINPSGGTTSYAQKFQGRVTMTRDTSTSTVYMELSSLRPEDTAVYYCARGFRMDQWGQGTLVTVSS",–,95.3,95.8
"BCMA32 (scFv, On lentivirus-transduced T cells as CAR; also called anti-BCMA scFv BCMA32) scFv: QSALTQPASVSGSPGQSITISCTGTSSDVGGYNYVSWYQQHPGKAPKLMIYDVSKRPSGVSNRFSGSKSGNTASLTISGLQAEDEADYYCSSYTSSSTVVFGGGTKLTVLGGGGSGGGGSGGGGSQVQLQESGAEVKKPGSSVKVSCKASGGTFSRYAISWVRQAPGQGLEWMGGIIPFFGTSDYAQKFQGRVTITADESTSTAYMDLSRLRSEDTAVYYCAVRVATTGTGFYYAMDVWGQGTTVTVSS",binds,–,–
